Values quoted from earlier work as cited in article PMC10339233.

Biological target: thrombomodulin EGF-like domains 4-6 (Homo sapiens) (UniProt P07204)
Assay: SPR

thrombin (from UniProt P00734)
Kd: 4 nM
